Here are results for five sequences from the supplement of paper PMC5998384.

Data set [1] concerns HeLa Kyoto. As to the kind of experiment: melting temperature (median over replicates), in situ; higher = more thermally stable.
Data set [2] relates to HeLa Kyoto. As to the kind of experiment: solubility change mitosis vs G1/S (difference of NP-40 vs SDS log2 ratios) (log2 ratio difference); higher = more soluble in mitosis.
In data set [3] the test system is HeLa Kyoto. Description: solubility in G1/S (NP-40 vs SDS abundance) (log2 ratio); higher = more soluble. To be noted: cell cycle stage: G1/S.
The subject of data set [4] is HeLa Kyoto. Description: thermal stability score vs G1/S (z-score of summed log2 fold changes over temperatures); higher = more thermally stable than in G1/S.
Where [5] appears, read: cell cycle stage: early G1 (4.5 h after nocodazole release).
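Throughout, for melting temperature (median over replicates), in situ: HeLa Kyoto cells synchronized by double thymidine or nocodazole block, proteins quantified by TMT10plex mass spectrometry, three independent biological replicates.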
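Throughout, for solubility change mitosis vs G1/S (difference of NP-40 vs SDS log2 ratios): synchronized HeLa Kyoto cells (double thymidine block for G1/S, nocodazole release for mitosis), protein amounts in NP-40 versus SDS lysates quantified by mass spectrometry, three biological replicates.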
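Throughout, for solubility in G1/S (NP-40 vs SDS abundance): HeLa Kyoto cells arrested at G1/S by double thymidine block, proteins quantified by TMT10plex mass spectrometry in mild NP-40 versus SDS extracts, three biological replicates.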
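Throughout, for thermal stability score vs G1/S (z-score of summed log2 fold changes over temperatures): synchronized HeLa Kyoto cells, proteins quantified by TMT10plex mass spectrometry, three biological replicates, mitosis taken 0.5 h after nocodazole release, G1/S directly after double thymidine block.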

“MTGNAGEWCLMESDPGVFTELIKGFGCRGAQVEEIWSLEPENFEKLKPVHGLIFLFKWQPGEEPAGSVVQDSRLDTIFFAKQVINNACATQAIVSVLLNCTHQDVHLGETLSEFKEFSQSFDAAMKGLALSNSDVIRQVHNSFARQQMFEFDTKTSAKEEDAFHFVSYVPVNGRLYELDGLREGPIDLGACNQDDWISAVRPVIEKRIQKYSEGEIRFNLMAIVSDRKMIYEQKIAELQRQLAEEEPMDTDQGNSMLSAIQSEVAKNQMLIEEEVQKLKRYKIENIRRKHNYLPFIMELLKTLAEHQQLIPLVEKAKEKQNAKKAQETK [UCHL5]”: the melting temperature was 48.7 °C with HeLa Kyoto [1] (cell cycle stage: G1/S) and 48.9 °C in the data set on HeLa Kyoto [1] (cell cycle stage: mitosis). Besides, the “solubility change mitosis (log2)” value in the data set with HeLa Kyoto [2] is -0.0948. Besides, the “solubility in G1/S (log2)” value in the data set with HeLa Kyoto [3] was found to be 0.533. Moreover, the thermal stability score in the data set on HeLa Kyoto [4] (setting [5]) worked out at 1.19; with HeLa Kyoto [4] (cell cycle stage: mitosis), 2.51.
For “MTGQGQSASGSSAWSTVFRHVRYENLIAGVSGGVLSNLALHPLDLVKIRFAVSDGLELRPKYNGILHCLTTIWKLDGLRGLYQGVTPNIWGAGLSWGLYFFFYNAIKSYKTEGRAERLEATEYLVSAAEAGAMTLCITNPLWVTKTRLMLQYDAVVNSPHRQYKGMFDTLVKIYKYEGVRGLYKGFVPGLFGTSHGALQFMAYELLKLKYNQHINRLPEAQLSTVEYISVAALSKIFAVAATYPYQVVRARLQDQHMFYSGVIDVITKTWRKEGVGGFYKGIAPNLIRVTPACCITFVVYENVSHFLLDLREKRK [SLC25A32]”, the melting temperature amounted to 56.8 °C in the data set with HeLa Kyoto [1] (cell cycle stage: G1/S) and 56.7 °C in the data set on HeLa Kyoto [1] (cell cycle stage: mitosis). In addition, in the data set on HeLa Kyoto [2], the “solubility change mitosis (log2)” value is -0.12. In addition, the “solubility in G1/S (log2)” value in the data set on HeLa Kyoto [3] is -0.199. Also, the thermal stability score is -0.577 in the data set with HeLa Kyoto [4] (setting [5]) and 0.155 in the data set with HeLa Kyoto [4] (cell cycle stage: mitosis).
“MTGSNSHITILTLKVLPHFESLGKQEKIPNKMSAFRNHCPHLDSVGEITKEDLIQKSLGTCQDCKVQGPNLWACLENRCSYVGCGESQVDHSTIHSQETKHYLTVNLTTLRVWCYACSKEVFLDRKLGTQPSLPHVRQPHQIQENSVQDFKIPSNTTLKTPLVAVFDDLDIEADEEDELRARGLTGLKNIGNTCYMNAALQALSNCPPLTQFFLDCGGLARTDKKPAICKSYLKLMTELWHKSRPGSVVPTTLFQGIKTVNPTFRGYSQQDAQEFLRCLMDLLHEELKEQVMEVEEDPQTITTEETMEEDKSQSDVDFQSCESCSNSDRAENENGSRCFSEDNNETTMLIQDDENNSEMSKDWQKEKMCNKINKVNSEGEFDKDRDSISETVDLNNQETVKVQIHSRASEYITDVHSNDLSTPQILPSNEGVNPRLSASPPKSGNLWPGLAPPHKKAQSASPKRKKQHKKYRSVISDIFDGTIISSVQCLTCDRVSVTLETFQDLSLPIPGKEDLAKLHSSSHPTSIVKAGSCGEAYAPQGWIAFFMEYVKRFVVSCVPSWFWGPVVTLQDCLAAFFARDELKGDNMYSCEKCKKLRNGVKFCKVQNFPEILCIHLKRFRHELMFSTKISTHVSFPLEGLDLQPFLAKDSPAQIVTYDLLSVICHHGTASSGHYIAYCRNNLNNLWYEFDDQSVTEVSESTVQNAEAYVLFYRKSSEEAQKERRRISNLLNIMEPSLLQFYISRQWLNKFKTFAEPGPISNNDFLCIHGGVPPRKAGYIEDLVLMLPQNIWDNLYSRYGGGPAVNHLYICHTCQIEAEKIEKRRKTELEIFIRLNRAFQKEDSPATFYCISMQWFREWESFVKGKDGDPPGPIDNTKIAVTKCGNVMLRQGADSGQISEETWNFLQSIYGGGPEVILRPPVVHVDPDILQAEEKIEVETRSL [USP33]”: the results for the melting temperature with HeLa Kyoto [1] (cell cycle stage: G1/S) and with HeLa Kyoto [1] (cell cycle stage: mitosis) were 51.5 °C and 51 °C, respectively. Further, the “solubility change mitosis (log2)” value with HeLa Kyoto [2] is -0.00182. The “solubility in G1/S (log2)” value with HeLa Kyoto [3] is -0.427. Besides, the results for the thermal stability score in the data set on HeLa Kyoto [4] (setting [5]) and with HeLa Kyoto [4] (cell cycle stage: mitosis) were 1.09 and 2.47, respectively.
Take “MTHSLVCPETVSRVSSVLNRNTRQFGKKHLFDQDEETCWNSDQGPSQWVTLEFPQLIRVSQLQIQFQGGFSSRRGCLEGSQGTQALHKIVDFYPEDNNSLQTFPIPAAEVDRLKVTFEDATDFFGRVVIYHLRVLGEKV [NR2C2AP]”: the results for the melting temperature in the data set on HeLa Kyoto [1] (cell cycle stage: G1/S) and with HeLa Kyoto [1] (cell cycle stage: mitosis) were 53.3 °C and 52.8 °C, respectively. In addition, the “solubility change mitosis (log2)” value in the data set with HeLa Kyoto [2] was -0.238. Moreover, the “solubility in G1/S (log2)” value in the data set on HeLa Kyoto [3] is 0.195. Also, the thermal stability score in the data set on HeLa Kyoto [4] (setting [5]) is 0.143; in the data set with HeLa Kyoto [4] (cell cycle stage: mitosis), -0.215.
Regarding “MTLEAIRYSRGSLQILDQLLLPKQSRYEAVGSVHQAWEAIRAMKVRGAPAIALVGCLSLAVELQAGAGGPGLAALVAFVRDKLSFLVTARPTAVNMARAARDLADVAAREAEREGATEEAVRERVICCTEDMLEKDLRDNRSIGDLGARHLLERVAPSGGKVTVLTHCNTGALATAGYGTALGVIRSLHSLGRLEHAFCTETRPYNQGARLTAFELVYEQIPATLITDSMVAAAMAHRGVSAVVVGADRVVANGDTANKVGTYQLAIVAKHHGIPFYVAAPSSSCDLRLETGKEIIIEERPGQELTDVNGVRIAAPGIGVWNPAFDVTPHDLITGGIITELGVFAPEELRTALTTTISSRDGTLDGPQM [MRI1]”, the figures for the melting temperature in the data set on HeLa Kyoto [1] (cell cycle stage: G1/S) and in the data set on HeLa Kyoto [1] (cell cycle stage: mitosis) were 52.5 °C and 52.4 °C, respectively. In the data set on HeLa Kyoto [2], the “solubility change mitosis (log2)” value is -0.154. In the data set on HeLa Kyoto [3], the “solubility in G1/S (log2)” value came to 0.21. Also, the thermal stability score is -0.841 in the data set on HeLa Kyoto [4] (setting [5]) and -0.966 in the data set on HeLa Kyoto [4] (cell cycle stage: mitosis).
